Experiments:
His tagged JNK3α2 = His tagged JNK3α2 (UniProt P53779); test: pull-down; His tagged JNK3α2 (10 µg) on Ni-NTA resin, arrestin-3 (10 µg) added with and without 100 µM IP6; wash 20 mM MOPS pH 7.4, 150 mM NaCl, 25 mM imidazole; eluted with 250 mM imidazole; Coomassie and Western, densitometry
arrestin-3 (1-393) = target: T1, arrestin-3 (1-393) (Bos taurus, UniProt P32120); test: microscale thermophoresis, two-site fit, pre-IR fluorescence change; type: binding
T1 construct: gene ARRB2; residues 1-393 (stop codon at L394, deletes 394-408), pTrcHisB, E. coli BL21 Gold, purified by heparin, Q/SP and size exclusion columns; 43 kD monomer, 134 kD trimer with IP6
T1 sequence (P32120 1-393 isoform P32120-2): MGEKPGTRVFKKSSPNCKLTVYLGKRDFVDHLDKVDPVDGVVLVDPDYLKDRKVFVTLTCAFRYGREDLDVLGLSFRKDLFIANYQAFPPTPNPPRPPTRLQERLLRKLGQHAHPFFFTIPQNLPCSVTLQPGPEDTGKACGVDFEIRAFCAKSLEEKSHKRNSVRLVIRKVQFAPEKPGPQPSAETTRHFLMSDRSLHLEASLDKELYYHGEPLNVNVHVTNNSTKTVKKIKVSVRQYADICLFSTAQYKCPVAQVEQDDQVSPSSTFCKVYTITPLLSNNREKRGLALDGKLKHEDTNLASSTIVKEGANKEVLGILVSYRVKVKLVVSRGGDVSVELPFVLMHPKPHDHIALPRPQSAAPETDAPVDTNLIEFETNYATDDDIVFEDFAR

Chain of His tagged JNK3α2 (P53779 whole entry): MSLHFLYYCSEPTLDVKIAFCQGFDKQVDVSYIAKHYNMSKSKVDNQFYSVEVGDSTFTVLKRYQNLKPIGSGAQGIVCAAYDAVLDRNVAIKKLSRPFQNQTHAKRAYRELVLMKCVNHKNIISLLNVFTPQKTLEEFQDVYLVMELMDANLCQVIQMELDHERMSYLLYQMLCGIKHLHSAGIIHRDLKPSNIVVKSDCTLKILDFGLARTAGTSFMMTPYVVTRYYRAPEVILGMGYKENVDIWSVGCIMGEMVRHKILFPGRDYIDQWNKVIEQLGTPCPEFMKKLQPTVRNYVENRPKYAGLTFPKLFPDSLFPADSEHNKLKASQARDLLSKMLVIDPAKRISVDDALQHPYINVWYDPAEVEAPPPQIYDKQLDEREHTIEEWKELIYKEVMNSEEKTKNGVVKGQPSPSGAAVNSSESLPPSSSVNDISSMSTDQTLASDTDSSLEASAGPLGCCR

Compound	fold change of bound arrestin-3 with 100 µM IP6 against without IP6 (His tagged JNK3α2)	Kd (arrestin-3 (1-393))
bovine arrestin-3 (1-393) (domain or fragment)	2 fold	–
O=P(O)(O)O[C@H]1[C@H](OP(=O)(O)O)[C@@H](OP(=O)(O)O)[C@H](OP(=O)(O)O)[C@@H](OP(=O)(O)O)[C@H]1OP(=O)(O)O [IP6]	–	0.057 µM
